From EP4682166A1 (Guangzhou Enmai Biotechnology Co., Ltd, dated 2026)

T1: human NMI (N-myc Interacting protein), recombinant protein (human, UniProt Q13287 1-307, limits assumed)
T1 construct: Gene ID: 9111; also called hNMI; antigen
T1 sequence (looked up): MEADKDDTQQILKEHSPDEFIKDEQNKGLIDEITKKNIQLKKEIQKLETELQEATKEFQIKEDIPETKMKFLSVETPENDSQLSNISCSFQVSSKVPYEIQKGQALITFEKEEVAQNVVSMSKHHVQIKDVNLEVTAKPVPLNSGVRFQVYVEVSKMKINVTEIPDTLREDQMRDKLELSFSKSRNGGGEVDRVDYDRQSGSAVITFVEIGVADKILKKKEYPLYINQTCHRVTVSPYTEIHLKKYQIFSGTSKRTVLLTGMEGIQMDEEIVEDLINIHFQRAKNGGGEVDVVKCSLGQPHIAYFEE

B1: monoclonal antibody B-8 (antibody, V domains shown)
VH: QSLEESGGDLVKPGASLTLTCTASGFSFSSSYYMCWVRQAPGKGLEWIACIYAGSSGSTYYASWAKGRFTISKTSSTTVTLQMTSLTAADTATYFCAREYSYDDYGDFWGFNLWGPGTLVTVSS
VL: ALVMTQTPSSVSAAVGGTVTINCQASQNIYTNLAWYQQKPGQPPKLLIYGASNLESGVPSRFKGSGSGTEYTLTISDLECDDAATYYCQSSLYSRIADRANAFGGGTEVVVK
notes: Rabbit monoclonal antibody; also called B8-1
B2: monoclonal antibody 240B10-1 (antibody, V domains shown)
VH: QSLEESGGRLVTPGGSLTLTCTVSGIDLSSYTMGWVRQAPGKGLEYIGIISGGGRTYYASWAKGRFTISKTSSTTVDLKVTSLTTEDTATYFCARIYTLWGQGTLVTVSS
VL: QVLTQTLASVSAAVGGTVTINCQSSQSVYNNDYLAWFQQKSGQPPKQLIHSASKLASGVPSRFKGSGSGTQFTLTINDVQCDDAATYYCLGGYDCYSADCNVFGGGTEVVVK
notes: Rabbit monoclonal antibody

What was measured:
[1] = target: T1, human NMI (N-myc Interacting protein), …; experiment: sandwich ELISA; detection 94C4-1-biotin 0.5µg/mL; hNMI 195.313 pg/mL
[2] = target: T1, human NMI (N-myc Interacting protein), …; experiment: sandwich ELISA; detection 94C4-1-biotin 1µg/mL; hNMI 6,250.000 pg/mL
[3] = target: T1, human NMI (N-myc Interacting protein), …; experiment: sandwich ELISA; detection 94C4-1-biotin 0.5µg/mL; hNMI 390.625 pg/mL
[4] = target: T1, human NMI (N-myc Interacting protein), …; experiment: sandwich ELISA; detection 98G10-1-biotin; hNMI 3.704 ng/mL
[5] = target: T1, human NMI (N-myc Interacting protein), …; experiment: sandwich ELISA; detection 94C4-1-biotin 1µg/mL; hNMI 3,125.000 pg/mL
[6] = target: T1, human NMI (N-myc Interacting protein), …; experiment: sandwich ELISA; detection 39B4-1-biotin; hNMI 1.235 ng/mL
[7] = target: T1, human NMI (N-myc Interacting protein), …; experiment: sandwich ELISA; detection 39B4-1-biotin; hNMI 11.111 ng/mL
[8] = target: T1, human NMI (N-myc Interacting protein), …; experiment: sandwich ELISA; detection 94C4-1-biotin 0.5µg/mL; hNMI 3,125.000 pg/mL
[9] = target: T1, human NMI (N-myc Interacting protein), …; experiment: sandwich ELISA; detection 94C4-1-biotin 0.5µg/mL; hNMI 6,250.000 pg/mL
[10] = target: T1, human NMI (N-myc Interacting protein), …; experiment: sandwich ELISA; detection 94C4-1-biotin 1µg/mL; hNMI 390.625 pg/mL
[11] = target: T1, human NMI (N-myc Interacting protein), …; experiment: sandwich ELISA; detection 39B4-1-biotin; hNMI 3.704 ng/mL
[12] = target: T1, human NMI (N-myc Interacting protein), …; experiment: sandwich ELISA; detection 94C4-1-biotin 1µg/mL; hNMI 1,562.500 pg/mL
[13] = target: T1, human NMI (N-myc Interacting protein), …; experiment: indirect ELISA, coated hNMI
[14] = target: T1, human NMI (N-myc Interacting protein), …; experiment: sandwich ELISA; detection 94C4-1-biotin 1µg/mL; hNMI 195.313 pg/mL
[15] = target: T1, human NMI (N-myc Interacting protein), …; experiment: sandwich ELISA; detection 94C4-1-biotin 0.5µg/mL; hNMI 48.828 pg/mL
[16] = target: T1, human NMI (N-myc Interacting protein), …; experiment: sandwich ELISA; detection 94C4-1-biotin 0.5µg/mL; hNMI 781.250 pg/mL
[17] = target: T1, human NMI (N-myc Interacting protein), …; experiment: sandwich ELISA; detection 94C4-1-biotin 0.5µg/mL; hNMI 97.656 pg/mL
[18] = target: T1, human NMI (N-myc Interacting protein), …; experiment: sandwich ELISA; detection 94C4-1-biotin 1µg/mL; hNMI 48.828 pg/mL
[19] = target: T1, human NMI (N-myc Interacting protein), …; experiment: sandwich ELISA; detection 94C4-1-biotin 1µg/mL; hNMI 50,000.000 pg/mL
[20] = target: T1, human NMI (N-myc Interacting protein), …; experiment: sandwich ELISA; detection 94C4-1-biotin 1µg/mL; hNMI 781.250 pg/mL
[21] = target: T1, human NMI (N-myc Interacting protein), …; experiment: sandwich ELISA; detection 98G10-1-biotin; hNMI 33.333 ng/mL
[22] = target: T1, human NMI (N-myc Interacting protein), …; experiment: sandwich ELISA; detection 39B4-1-biotin; hNMI 100.000 ng/mL
[23] = target: T1, human NMI (N-myc Interacting protein), …; experiment: sandwich ELISA; detection 98G10-1-biotin; hNMI 11.111 ng/mL

| Binder | OD450 [1] [OD450] | OD450 [2] [OD450] | OD450 [3] [OD450] | OD450 [4] [OD450] | OD450 [5] [OD450] | OD450 [6] [OD450] | OD450 [7] [OD450] | OD450 [8] [OD450] | OD450 [9] [OD450] | OD450 [10] [OD450] | OD450 [11] [OD450] | OD450 [12] [OD450] | EC50 [13] [µg/mL] | OD450 [14] [OD450] | OD450 [15] [OD450] | OD450 [16] [OD450] | OD450 [17] [OD450] | OD450 [18] [OD450] | OD450 [19] [OD450] | OD450 [20] [OD450] | other results |
| --- | --- | --- | --- | --- | --- | --- | --- | --- | --- | --- | --- | --- | --- | --- | --- | --- | --- | --- | --- | --- | --- |
| B1 | 0.134 | 1.3 | 0.178 | 0.607 | 0.75 | 0.291 | 1.25 | 0.712 | 1.29 | 0.206 | 0.563 | 0.446 | 0.0444 | 0.173 | 0.102 | 0.265 | 0.113 | 0.139 | 3.11 | 0.288 | OD450 [21]: 2.48 OD450; OD450 [22]: 3.07 OD450; OD450 [23]: 1.38 OD450 |
| B2 | 0.187 | 1.47 | 0.268 | 0.777 | 0.958 | 0.35 | 1.71 | 1.29 | 1.58 | 0.255 | 0.785 | 0.568 | 0.0477 | 0.212 | 0.125 | 0.396 | 0.146 | 0.167 | 3.1 | 0.351 | OD450 [21]: 2.56 OD450; OD450 [22]: 3.12 OD450; OD450 [23]: 1.7 OD450 |
